{"source": "patent US20130086703", "system": "full-length human Keratin 6"}
{"substance": "Kgp", "values": [{"measurement": "enzymatic degradation products detected by mass spectrometry (on spot profiling)", "result": "peptides consisting of the amino acid sequences shown by SEQ ID NOs: 4 and 5 (peptides 6 and 7) were newly identified as Kgp degradation products of human Keratin 6"}]}
